IntAct's records for PubMed 31515488

B1: Docking protein 2 (Homo sapiens), O60496 (parent)
chain: MGDGAVKQGFLYLQQQQTFGKKWRRFGASLYGGSDCALARLELQEGPEKPRRCEAARKVIRLSDCLRVAEAGGEASSPRDTSAFFLETKERLYLLAAPAAERGDWVQAICLLAFPGQRKELSGPEGKQSRPCMEENELYSSAVTVGPHKEFAVTMRPTEASERCHLRGSYTLRAGESALELWGGPEPGTQLYDWPYRFLRRFGRDKVTFSFEAGRRCVSGEGNFEFETRQGNEIFLALEEAISAQKNAAPATPQPQPATIPASLPRPDSPYSRPHDSLPPPSPTTPVPAPRPRGQEGEYAVPFDAVARSLGKNFRGILAVPPQLLADPLYDSIEETLPPRPDHIYDEPEGVAALSLYDSPQEPRGEAWRRQATADRDPAGLQHVQPAGQDFSASGWQPGTEYDNVVLKKGPK
partner: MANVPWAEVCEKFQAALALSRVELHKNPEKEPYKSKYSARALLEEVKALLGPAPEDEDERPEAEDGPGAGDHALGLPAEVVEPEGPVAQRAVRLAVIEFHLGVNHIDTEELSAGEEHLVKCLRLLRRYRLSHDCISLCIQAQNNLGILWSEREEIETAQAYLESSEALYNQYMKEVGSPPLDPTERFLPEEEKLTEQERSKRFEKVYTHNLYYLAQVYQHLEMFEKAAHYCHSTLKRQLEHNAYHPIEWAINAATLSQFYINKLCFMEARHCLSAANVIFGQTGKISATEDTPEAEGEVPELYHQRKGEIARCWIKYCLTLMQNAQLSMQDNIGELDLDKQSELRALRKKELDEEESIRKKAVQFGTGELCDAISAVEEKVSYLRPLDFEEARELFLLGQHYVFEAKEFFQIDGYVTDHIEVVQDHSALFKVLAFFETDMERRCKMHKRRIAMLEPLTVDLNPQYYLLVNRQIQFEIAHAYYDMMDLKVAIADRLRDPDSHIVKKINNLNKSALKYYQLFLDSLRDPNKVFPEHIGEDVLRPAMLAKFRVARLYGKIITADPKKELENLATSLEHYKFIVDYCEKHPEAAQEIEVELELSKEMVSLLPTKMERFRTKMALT
B2: E3 ubiquitin-protein ligase LNX (Homo sapiens), Q8TBB1 (parent)
chain: MNQPESANDPEPLCAVCGQAHSLEENHFYSYPEEVDDDLICHICLQALLDPLDTPCGHTYCTLCLTNFLVEKDFCPMDRKPLVLQHCKKSSILVNKLLNKLLVTCPFREHCTQVLQRCDLEHHFQTSCKGASHYGLTKDRKRRSQDGCPDGCASLTATAPSPEVSAAATISLMTDEPGLDNPAYVSSAEDGQPAISPVDSGRSNRTRARPFERSTIRSRSFKKINRALSVLRRTKSGSAVANHADQGRENSENTTAPEVFPRLYHLIPDGEITSIKINRVDPSESLSIRLVGGSETPLVHIIIQHIYRDGVIARDGRLLPGDIILKVNGMDISNVPHNYAVRLLRQPCQVLWLTVMREQKFRSRNNGQAPDAYRPRDDSFHVILNKSSPEEQLGIKLVRKVDEPGVFIFNVLDGGVAYRHGQLEENDRVLAINGHDLRYGSPESAAHLIQASERRVHLVVSRQVRQRSPDIFQEAGWNSNGSWSPGPGERSNTPKPLHPTITCHEKVVNIQKDPGESLGMTVAGGASHREWDLPIYVISVEPGGVISRDGRIKTGDILLNVDGVELTEVSRSEAVALLKRTSSSIVLKALEVKEYEPQEDCSSPAALDSNHNMAPPSDWSPSWVMWLELPRCLYNCKDIVLRRNTAGSLGFCIVGGYEEYNGNKPFFIKSIVEGTPAYNDGRIRCGDILLAVNGRSTSGMIHACLARLLKELKGRITLTIVSWPGTFL
partner: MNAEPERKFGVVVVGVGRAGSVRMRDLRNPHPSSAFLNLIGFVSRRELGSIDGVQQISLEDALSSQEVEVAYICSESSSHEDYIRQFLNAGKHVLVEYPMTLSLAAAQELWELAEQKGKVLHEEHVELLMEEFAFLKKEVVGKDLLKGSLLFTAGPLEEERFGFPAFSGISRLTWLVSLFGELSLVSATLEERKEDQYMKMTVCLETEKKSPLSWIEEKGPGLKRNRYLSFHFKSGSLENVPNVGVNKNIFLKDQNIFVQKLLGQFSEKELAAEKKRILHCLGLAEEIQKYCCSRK
B3: Four and a half LIM domains protein 2 (Homo sapiens), Q14192 (parent)
chain: MTERFDCHHCNESLFGKKYILREESPYCVVCFETLFANTCEECGKPIGCDCKDLSYKDRHWHEACFHCSQCRNSLVDKPFAAKEDQLLCTDCYSNEYSSKCQECKKTIMPGTRKMEYKGSSWHETCFICHRCQQPIGTKSFIPKDNQNFCVPCYEKQHAMQCVQCKKPITTGGVTYREQPWHKECFVCTACRKQLSGQRFTARDDFAYCLNCFCDLYAKKCAGCTNPISGLGGTKYISFEERQWHNDCFNCKKCSLSLVGRGFLTERDDILCPDCGKDI
partner: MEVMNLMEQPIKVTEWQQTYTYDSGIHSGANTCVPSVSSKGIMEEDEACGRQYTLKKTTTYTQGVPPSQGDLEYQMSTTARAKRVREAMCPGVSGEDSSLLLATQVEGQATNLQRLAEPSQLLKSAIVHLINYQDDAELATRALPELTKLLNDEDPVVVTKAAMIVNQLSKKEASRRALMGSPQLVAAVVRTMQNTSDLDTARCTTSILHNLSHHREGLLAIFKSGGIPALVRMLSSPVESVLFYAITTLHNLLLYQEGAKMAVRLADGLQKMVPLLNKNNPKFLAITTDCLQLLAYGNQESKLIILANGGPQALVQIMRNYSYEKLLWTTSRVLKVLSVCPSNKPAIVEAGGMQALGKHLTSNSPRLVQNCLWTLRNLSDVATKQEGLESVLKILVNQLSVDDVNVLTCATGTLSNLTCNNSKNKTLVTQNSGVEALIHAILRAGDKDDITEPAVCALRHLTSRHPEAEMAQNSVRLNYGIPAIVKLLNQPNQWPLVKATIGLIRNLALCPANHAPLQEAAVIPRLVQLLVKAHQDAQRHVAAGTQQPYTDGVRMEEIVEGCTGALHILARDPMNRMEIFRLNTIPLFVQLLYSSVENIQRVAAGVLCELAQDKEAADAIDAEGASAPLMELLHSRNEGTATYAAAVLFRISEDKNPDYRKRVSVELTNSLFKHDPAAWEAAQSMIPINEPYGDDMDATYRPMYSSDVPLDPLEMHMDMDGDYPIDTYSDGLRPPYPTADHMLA
B4: Protein FAM9B (Homo sapiens), Q8IZU0 (parent)
chain: MAAWGKKHAGKDPVRDECEERNRFTETREEDVTDEHGEREPFAETDEHTGANTKKPEDTAEDLTAKRKRMKMDKTCSKTKNKSKHALRKKQLKRQKRDYIHSLKLLNVLEEYITDEQKEEEEEEGEEEELIRIFQEQQKKWQQYRSVRRERLKEMKLLRDQFVKALEDFEDLCDRVFSDEDSELDN
partner: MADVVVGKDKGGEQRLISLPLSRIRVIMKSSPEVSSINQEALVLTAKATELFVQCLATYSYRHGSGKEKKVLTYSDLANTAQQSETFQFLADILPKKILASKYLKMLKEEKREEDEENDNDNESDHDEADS
B5: Probable RNA-binding protein 46 (Homo sapiens), Q8TBY0 (parent)
chain: MNEENIDGTNGCSKVRTGIQNEAALLALMEKTGYNMVQENGQRKFGGPPPGWEGPPPPRGCEVFVGKIPRDMYEDELVPVFERAGKIYEFRLMMEFSGENRGYAFVMYTTKEEAQLAIRILNNYEIRPGKFIGVCVSLDNCRLFIGAIPKEKKKEEILDEMKKVTEGVVDVIVYPSATDKTKNRGFAFVEYESHRAAAMARRKLIPGTFQLWGHTIQVDWADPEKEVDEETMQRVKVLYVRNLMISTTEETIKAEFNKFKPGAVERVKKLRDYAFVHFFNREDAVAAMSVMNGKCIDGASIEVTLAKPVNKENTWRQHLNGQISPNSENLIVFANKEESHPKTLGKLPTLPARLNGQHSPSPPEVERCTYPFYPGTKLTPISMYSLKSNHFNSAVMHLDYYCNKNNWAPPEYYLYSTTSQDGKVLLVYKIVIPAIANGSQSYFMPDKLCTTLEDAKELAAQFTLLHLDYNFHRSSINSLSPVSATLSSGTPSVLPYTSRPYSYPGYPLSPTISLANGSHVGQRLCISNQASFF

Variants of: B1
Conditions: with kbp_human KIFBP

Row | Variant | effect of a mutation on the interaction
1 | MGDGAVKQGFLYLQQQQTFGKKWRRFGASLYGGSDCALARLELQEGPEKPRRCEAARKVIRLSDCLRVAEAGGEASSPRDTSAFFLETKERLYLLAAPAAERGDWVQAICLLAFPGQRKELSGPEGKQSRPCMEENELYSSAVTVGPHKEFAVTMRPTEASERCHLRGSYTLRAGESALELWGGPEPGTQLYDWPYRFLRRFGRDKVTFSFEAGRRCVSGEGNFEFETRQGNEIFLALEEAISAQKNAAPATPQPQPATIPASLPRPDSPYSRLHDSLPPPSPTTPVPAPRPRGQEGEYAVPFDAVARSLGKNFRGILAVPPQLLADPLYDSIEETLPPRPDHIYDEPEGVAALSLYDSPQEPRGEAWRRQATADRDPAGLQHVQPAGQDFSASGWQPGTEYDNVVLKKGPK [P274L] | disrupting interaction strength

Variants of: B2
Conditions: with biea_human BLVRA

Row | Variant | effect of a mutation on the interaction
2 | R342H | with no effect

Variants of: B3
Conditions: with plak_human JUP

Row | Variant | effect of a mutation on the interaction
3 | MTERFDCHHCNESLFGKKYILREESPYCVVCFETLFSNTCEECGKPIGCDCKDLSYKDRHWHEACFHCSQCRNSLVDKPFAAKEDQLLCTDCYSNEYSSKCQECKKTIMPGTRKMEYKGSSWHETCFICHRCQQPIGTKSFIPKDNQNFCVPCYEKQHAMQCVQCKKPITTGGVTYREQPWHKECFVCTACRKQLSGQRFTARDDFAYCLNCFCDLYAKKCAGCTNPISGLGGTKYISFEERQWHNDCFNCKKCSLSLVGRGFLTERDDILCPDCGKDI [A37S] | with no effect
4 | MTERFDCHHCNESLFGKKYILREESPYCVVCFETLFANTCEECGKPIGCDCKDLSYKDRHWHEACFHCSQCRNSLVDKPFAAKEDQLLCTDCYSKEYSSKCQECKKTIMPGTRKMEYKGSSWHETCFICHRCQQPIGTKSFIPKDNQNFCVPCYEKQHAMQCVQCKKPITTGGVTYREQPWHKECFVCTACRKQLSGQRFTARDDFAYCLNCFCDLYAKKCAGCTNPISGLGGTKYISFEERQWHNDCFNCKKCSLSLVGRGFLTERDDILCPDCGKDI [N95K] | disrupting interaction strength

Variants of: B4
Conditions: with chrc1_human CHRAC1, Q9NRG0

Row | Variant | effect of a mutation on the interaction
5 | R23H | with no effect

Variants of: B5
Conditions: with rbpms_human RBPMS

Row | Variant | effect of a mutation on the interaction
6 | MNEENIDGTNGCSKVRTGIQNEAALLALMEKTGYNMVQENGQRKFGGPPPGWEGPPPPRGCEVFVGKIPRDMYEDELVPVFERAGKIYEFRLMMEFSGENRGYAFVMYTTKEEAQLAIRILNNYEMRPGKFIGVCVSLDNCRLFIGAIPKEKKKEEILDEMKKVTEGVVDVIVYPSATDKTKNRGFAFVEYESHRAAAMARRKLIPGTFQLWGHTIQVDWADPEKEVDEETMQRVKVLYVRNLMISTTEETIKAEFNKFKPGAVERVKKLRDYAFVHFFNREDAVAAMSVMNGKCIDGASIEVTLAKPVNKENTWRQHLNGQISPNSENLIVFANKEESHPKTLGKLPTLPARLNGQHSPSPPEVERCTYPFYPGTKLTPISMYSLKSNHFNSAVMHLDYYCNKNNWAPPEYYLYSTTSQDGKVLLVYKIVIPAIANGSQSYFMPDKLCTTLEDAKELAAQFTLLHLDYNFHRSSINSLSPVSATLSSGTPSVLPYTSRPYSYPGYPLSPTISLANGSHVGQRLCISNQASFF [I126M] | with no effect
